Four sequences from the supplement of paper PMC5998384 can be followed below.

Data set [1] relates to HeLa Kyoto. Briefly: solubility change mitosis vs G1/S (difference of NP-40 vs SDS log2 ratios) (log2 ratio difference); higher = more soluble in mitosis.
Data set [2] concerns HeLa Kyoto. Briefly: thermal stability score vs G1/S (z-score of summed log2 fold changes over temperatures); higher = more thermally stable than in G1/S.
Data set [3] concerns HeLa Kyoto. Briefly: solubility in G1/S (NP-40 vs SDS abundance) (log2 ratio); higher = more soluble. The following applies: cell cycle stage: G1/S.
The subject of data set [4] is HeLa Kyoto. Briefly: melting temperature (median over replicates), in situ; higher = more thermally stable.
The mark [5] stands for this setting: cell cycle stage: early G1 (4.5 h after nocodazole release).
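Wherever melting temperature (median over replicates), in situ is given: HeLa Kyoto cells synchronized by double thymidine or nocodazole block, proteins quantified by TMT10plex mass spectrometry, three independent biological replicates.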
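Wherever solubility change mitosis vs G1/S (difference of NP-40 vs SDS log2 ratios) is given: synchronized HeLa Kyoto cells (double thymidine block for G1/S, nocodazole release for mitosis), protein amounts in NP-40 versus SDS lysates quantified by mass spectrometry, three biological replicates.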
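Wherever solubility in G1/S (NP-40 vs SDS abundance) is given: HeLa Kyoto cells arrested at G1/S by double thymidine block, proteins quantified by TMT10plex mass spectrometry in mild NP-40 versus SDS extracts, three biological replicates.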
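Wherever thermal stability score vs G1/S (z-score of summed log2 fold changes over temperatures) is given: synchronized HeLa Kyoto cells, proteins quantified by TMT10plex mass spectrometry, three biological replicates, mitosis taken 0.5 h after nocodazole release, G1/S directly after double thymidine block.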

Consider “MLLGGPPRSPRSGTSPKGPWSSTGHVQFGKSPQTWPRRTRPRSPEPAAPSGVRGSTWTRRRDSPRRAGPTALSRYVGHLWMGRRPPSPEARGPVPRSSAASRARRSLASPGISPGPLTATIGGAVAGGGPRQGRAEAHKEVFPGQRVGKMAAPMELFCWSGGWGLPSVDLDSLAVLTYARFTGAPLKVHKISNPWQSPSGTLPALRTSHGEVISVPHKIITHLRKEKYNADYDLSARQGADTLAFMSLLEEKLLPVLVHTFWIDTKNYVEVTRKWYAEAMPFPLNFFLPGRMQRQYMERLQLLTGEHRPEDEEELEKELYREARECLTLLSQRLGSQKFFFGDAPASLDAFVFSYLALLLQAKLPSGKLQVHLRGLHNLCAYCTHILSLYFPWDGAEVPPQRQTPAGPETEEEPYRRRNQILSVLAGLAAMVGYALLSGIVSIQRATPARAPGTRTLGMAEEDEEE [MTX1]”, for which the “solubility change mitosis (log2)” value in the data set with HeLa Kyoto [1] is -0.12. Besides, the thermal stability score in the data set on HeLa Kyoto [2] (setting [5]) was 0.166; with HeLa Kyoto [2] (cell cycle stage: mitosis) it was -0.623. Further, the “solubility in G1/S (log2)” value with HeLa Kyoto [3] stood at 0.309. Further, the melting temperature was 52.8 °C in the data set with HeLa Kyoto [4] (cell cycle stage: G1/S) and 52.4 °C with HeLa Kyoto [4] (cell cycle stage: mitosis).

For the sequence “MLLKEYRICMPLTVDEYKIGQLYMISKHSHEQSDRGEGVEVVQNEPFEDPHHGNGQFTEKRVYLNSKLPSWARAVVPKIFYVTEKAWNYYPYTITEYTCSFLPKFSIHIETKYEDNKGSNDTIFDNEAKDVEREVCFIDIACDEIPERYYKESEDPKHFKSEKTGRGQLREGWRDSHQPIMCSYKLVTVKFEVWGLQTRVEQFVHKVVRDILLIGHRQAFAWVDEWYDMTMDEVREFERATQEATNKKIGIFPPAISISSIPLLPSSVRSAPSSAPSTPLSTDAPEFLSVPKDRPRKKSAPETLTLPDPEKKATLNLPGMHSSDKPCRPKSE [PITPNC1]”, the “solubility change mitosis (log2)” value in the data set on HeLa Kyoto [1] was -0.0509. Also, the figures for the thermal stability score in the data set on HeLa Kyoto [2] (setting [5]) and in the data set on HeLa Kyoto [2] (cell cycle stage: mitosis) were 0.0627 and -1.13, respectively. Further, the “solubility in G1/S (log2)” value with HeLa Kyoto [3] is -0.0542. In addition, the melting temperature in the data set with HeLa Kyoto [4] (cell cycle stage: G1/S) came out at 51.7 °C; in the data set with HeLa Kyoto [4] (cell cycle stage: mitosis), 51.5 °C.

For “MLLNGDCPESLKKEAAAAEPPRENGLDEAGPGDETTGQEVIVIQDTGFSVKILAPGIEPFSLQVSPQEMVQEIHQVLMDREDTCHRTCFSLHLDGNVLDHFSELRSVEGLQEGSVLRVVEEPYTVREARIHVRHVRDLLKSLDPSDAFNGVDCNSLSFLSVFTDGDLGDSGKRKKGLEMDPIDCTPPEYILPGSRERPLCPLQPQNRDWKPLQCLKVLTMSGWNPPPGNRKMHGDLMYLFVITAEDRQVSITASTRGFYLNQSTAYHFNPKPASPRFLSHSLVELLNQISPTFKKNFAVLQKKRVQRHPFERIATPFQVYSWTAPQAEHAMDCVRAEDAYTSRLGYEEHIPGQTRDWNEELQTTRELPRKNLPERLLRERAIFKVHSDFTAAATRGAMAVIDGNVMAINPSEETKMQMFIWNNIFFSLGFDVRDHYKDFGGDVAAYVAPTNDLNGVRTYNAVDVEGLYTLGTVVVDYRGYRVTAQSIIPGILERDQEQSVIYGSIDFGKTVVSHPRYLELLERTSRPLKILRHQVLNDRDEEVELCSSVECKGIIGNDGRHYILDLLRTFPPDLNFLPVPGEELPEECARAGFPRAHRHKLCCLRQELVDAFVEHRYLLFMKLAALQLMQQNASQLETPSSLENGGPSSLESKSEDPPGQEAGSEEEGSSASGLAKVKELAETIAADDGTDPRSREVIRNACKAVGSISSTAFDIRFNPDIFSPGVRFPESCQDEVRDQKQLLKDAAAFLLSCQIPGLVKDCMEHAVLPVDGATLAEVMRQRGINMRYLGKVLELVLRSPARHQLDHVFKIGIGELITRSAKHIFKTYLQGVELSGLSAAISHFLNCFLSSYPNPVAHLPADELVSKKRNKRRKNRPPGAADNTAWAVMTPQELWKNICQEAKNYFDFDLECETVDQAVETYGLQKITLLREISLKTGIQVLLKEYSFDSRHKPAFTEEDVLNIFPVVKHVNPKASDAFHFFQSGQAKVQQGFLKEGCELINEALNLFNNVYGAMHVETCACLRLLARLHYIMGDYAEALSNQQKAVLMSERVMGTEHPNTIQEYMHLALYCFASSQLSTALSLLYRARYLMLLVFGEDHPEMALLDNNIGLVLHGVMEYDLSLRFLENALAVSTKYHGPKALKVALSHHLVARVYESKAEFRSALQHEKEGYTIYKTQLGEDHEKTKESSEYLKCLTQQAVALQRTMNEIYRNGSSANIPPLKFTAPSMASVLEQLNVINGILFIPLSQKDLENLKAEVARRHQLQEASRNRDRAEEPMATEPAPAGAPGDLGSQPPAAKDPSPSVQG [CLUH]”, the “solubility change mitosis (log2)” value with HeLa Kyoto [1] is -0.119. The thermal stability score in the data set with HeLa Kyoto [2] (setting [5]) was 0.526; with HeLa Kyoto [2] (cell cycle stage: mitosis), -0.315. Besides, the “solubility in G1/S (log2)” value in the data set on HeLa Kyoto [3] was -0.0434. The melting temperature in the data set with HeLa Kyoto [4] (cell cycle stage: G1/S) was 51.1 °C; in the data set with HeLa Kyoto [4] (cell cycle stage: mitosis) it was 50.1 °C.

“MLPNTGRLAGCTVFITGASRGIGKAIALKAAKDGANIVIAAKTAQPHPKLLGTIYTAAEEIEAVGGKALPCIVDVRDEQQISAAVEKAIKKFGGIDILVNNASAISLTNTLDTPTKRLDLMMNVNTRGTYLASKACIPYLKKSKVAHILNISPPLNLNPVWFKQHCAYTIAKYGMSMYVLGMAEEFKGEIAVNALWPKTAIHTAAMDMLGGPGIESQCRKVDIIADAAYSIFQKPKSFTGNFVIDENILKEEGIENFDVYAIKPGHPLQPDFFLDEYPEAVSKKVESTGAVPEFKEEKLQLQPKPRSGAVEETFRIVKDSLSDDVVKATQAIYLFELSGEDGGTWFLDLKSKGGNVGYGEPSDQADVVMSMTTDDFVKMFSGKLKPTMAFMSGKLKIKGNMALAIKLEKLMNQMNARL [HSDL2]”: the “solubility change mitosis (log2)” value with HeLa Kyoto [1] is -0.109. Moreover, the thermal stability score with HeLa Kyoto [2] (setting [5]) is -0.828; with HeLa Kyoto [2] (cell cycle stage: mitosis), 0.589. Also, the “solubility in G1/S (log2)” value in the data set on HeLa Kyoto [3] was 0.296. The melting temperature was 51.5 °C in the data set on HeLa Kyoto [4] (cell cycle stage: G1/S) and 52.5 °C in the data set on HeLa Kyoto [4] (cell cycle stage: mitosis).
